{"source": "patent US20250388672A1", "about": "(Ablynx, published 2025)", "binders": {"B1": {"name": "T0170117G03 (VHH)", "VHH": "EVQLVESGGGPVQAGGSLRLSCAASGRTYRGYSMGWFRQAPGKEREFVAAIVWSGGNTYYEDSVKGRFTISRDNAKNTMYLQMTSLKPEDSATYYCAAKIRPYIFKIAGQYDYWGQGTQVTVSS", "notes": "Monovalent anti-CD3 Nanobody, expressed in E. coli TG1 as triple Flag, His6-tagged protein; also called T0170PMP117G03; cluster A representative; not shown: C-terminal triple FLAG and His6 tag"}, "B2": {"name": "T0170075G11 (VHH)", "VHH": "B1 VHH with G16D, A40V, S54T, G55D, N74I, A75T, Q82H", "notes": "also called T0170PMP075G11; cluster A; not shown: C-terminal triple FLAG and His6 tag"}, "B3": {"name": "20CD019C07 (VHH)", "VHH": "EVQLVESGGGLVQPGGSLRLSCTFSGGTFSSYTMGWFRQAPGKEREFVAEVRWGGVTTYSNSLKDRFSISEDSVKNAVYLQMNSLKPEDTAVYYCAAVRQMYMTVVPDYWGQGTLVTVSS", "notes": "also called the anti-CD20 Nanobody; human CD20 targeting Nanobody"}}, "key": {"[1]": {"biological_target": "T1, human TCR/CD3 complex on purified primary human T cells (human)", "T1 construct": "Natural complex on T cells isolated from buffy coats of healthy donors; also called hu T cells; purified primary T cells", "T1 sequence (delta, as listed by the source limits assumed, chain 1 of 4)": "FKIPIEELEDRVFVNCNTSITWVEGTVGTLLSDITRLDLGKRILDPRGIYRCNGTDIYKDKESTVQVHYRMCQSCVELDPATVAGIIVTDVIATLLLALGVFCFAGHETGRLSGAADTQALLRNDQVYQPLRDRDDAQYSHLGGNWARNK", "T1 sequence (gamma, as listed by the source limits assumed, chain 2 of 4)": "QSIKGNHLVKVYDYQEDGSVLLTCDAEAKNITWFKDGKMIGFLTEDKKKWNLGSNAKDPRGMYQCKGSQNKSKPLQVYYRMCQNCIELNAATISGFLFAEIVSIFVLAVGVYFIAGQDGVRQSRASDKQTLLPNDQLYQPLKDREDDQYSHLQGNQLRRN", "T1 sequence (epsilon, as listed by the source limits assumed, chain 3 of 4)": "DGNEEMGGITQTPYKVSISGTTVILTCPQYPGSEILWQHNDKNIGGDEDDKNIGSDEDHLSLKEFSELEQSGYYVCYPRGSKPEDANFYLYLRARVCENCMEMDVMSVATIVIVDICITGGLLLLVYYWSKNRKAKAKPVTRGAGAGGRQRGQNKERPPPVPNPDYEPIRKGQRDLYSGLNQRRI", "T1 sequence (zeta, as listed by the source limits assumed, chain 4 of 4)": "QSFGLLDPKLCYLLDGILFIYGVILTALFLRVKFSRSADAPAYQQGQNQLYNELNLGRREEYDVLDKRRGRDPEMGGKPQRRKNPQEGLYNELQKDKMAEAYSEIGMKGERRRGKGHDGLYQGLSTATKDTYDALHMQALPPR", "experiment": "flow cytometry on purified primary human T cells"}, "[2]": {"biological_target": "T2, human CD3 expressed on HEK293H cells (human, UniProt P20963 22-164)", "T2 construct": "also called HEK293H CD3; HEK293H human CD3", "T2 sequence (chain, as listed by the source limits assumed, chain 1 of 4)": "as the sequence (delta, as listed by the source limits assumed, chain 1 of 4) above", "T2 sequence (chain, as listed by the source limits assumed, chain 2 of 4)": "as the sequence (gamma, as listed by the source limits assumed, chain 2 of 4) above", "T2 sequence (chain, as listed by the source limits assumed, chain 3 of 4)": "as the sequence (epsilon, as listed by the source limits assumed, chain 3 of 4) above", "T2 sequence (P20963 22-164 limits assumed, chain 4 of 4)": "as the sequence (zeta, as listed by the source limits assumed, chain 4 of 4) above", "experiment": "flow cytometry on HEK293H cells expressing human CD3", "excerpt": "The parental HEK293H cell line was included as TCR/CD3 negative cell line."}, "[3]": {"biological_target": "T3, human CD20 (human, UniProt P11836 1-297)", "T3 construct": "whole, on cells; On Ramos or Raji B cells (natural) or on transfected CHO-K1 cells, as said under assay or readout; also called CD20 on Ramos cells; CD20 on Raji cells", "T3 sequence (looked up)": "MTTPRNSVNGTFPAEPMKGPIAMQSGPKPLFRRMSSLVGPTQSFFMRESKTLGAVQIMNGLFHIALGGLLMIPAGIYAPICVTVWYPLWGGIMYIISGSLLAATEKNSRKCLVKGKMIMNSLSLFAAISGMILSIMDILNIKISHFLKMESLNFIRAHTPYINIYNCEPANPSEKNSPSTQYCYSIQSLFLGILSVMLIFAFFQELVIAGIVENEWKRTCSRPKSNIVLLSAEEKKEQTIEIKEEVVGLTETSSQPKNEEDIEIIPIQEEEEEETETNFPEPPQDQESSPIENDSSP", "experiment": "flow cytometry on Ramos cells, MCF (Mean PE)"}, "[4]": {"biological_target": "T3, human CD20", "experiment": "flow cytometry on Raji cells, MCF (Mean PE)"}}, "note": "Substitutions are numbered along the chain they refer to."}
{"binder": "B1", "values": [{"measurement": "EC50", "setting": "[1]", "result": 22, "unit": "nM"}]}
{"binder": "B2", "values": [{"measurement": "EC50", "setting": "[2]", "result": 84, "unit": "nM"}]}
{"binder": "B3", "values": [{"measurement": "EC50 (read off the curve)", "setting": "[3]", "result": "~9", "unit": "nM"}, {"measurement": "EC50 (read off the curve)", "setting": "[4]", "result": "~20", "unit": "nM"}]}
